The values that follow come from patent US20100113557A1 (ST MARIANNA UNIVERSITY SCHOOL OF MEDICINE, published 2010).

The target of this assay is T1, HERC2 (hect domain and RCC-like domain 2) (human, UniProt O95714 1-4834).
T1 construct: Endogenous protein of 293T or HeLa cells, found in BRCA1 immune precipitates from cell lysates; also called endogenous HERC2
Nature of the assay: immunoprecipitation with anti-BRCA1 antibody, synchronized HeLa cells. Here is the method:
For the immunoprecipitation of a BRCA1 complex, the cell lysate was allowed to react with an anti-BRCA1 antibody at 4° C. for 1 hour. Thereafter, a precipitation reaction was carried out at 4° C. for 1 hour using Protein A and G sepharose (Invitrogen). The precipitate was washed with a 0.5% NP-40 buffer 3 times, and it was then re-suspended in an SDS sample buffer (50 mM Tris-HCl (pH6.8), 0.2% bromophenol blue, 10% glycerol, 2% SDS, and 100 mM DTT). The suspension was boiled for 3 minutes. As a peptide competition control, an equal amount of blocking peptide was added.

T1 sequence (O95714 other isoform, or with tags, fused parts or gaps limits assumed): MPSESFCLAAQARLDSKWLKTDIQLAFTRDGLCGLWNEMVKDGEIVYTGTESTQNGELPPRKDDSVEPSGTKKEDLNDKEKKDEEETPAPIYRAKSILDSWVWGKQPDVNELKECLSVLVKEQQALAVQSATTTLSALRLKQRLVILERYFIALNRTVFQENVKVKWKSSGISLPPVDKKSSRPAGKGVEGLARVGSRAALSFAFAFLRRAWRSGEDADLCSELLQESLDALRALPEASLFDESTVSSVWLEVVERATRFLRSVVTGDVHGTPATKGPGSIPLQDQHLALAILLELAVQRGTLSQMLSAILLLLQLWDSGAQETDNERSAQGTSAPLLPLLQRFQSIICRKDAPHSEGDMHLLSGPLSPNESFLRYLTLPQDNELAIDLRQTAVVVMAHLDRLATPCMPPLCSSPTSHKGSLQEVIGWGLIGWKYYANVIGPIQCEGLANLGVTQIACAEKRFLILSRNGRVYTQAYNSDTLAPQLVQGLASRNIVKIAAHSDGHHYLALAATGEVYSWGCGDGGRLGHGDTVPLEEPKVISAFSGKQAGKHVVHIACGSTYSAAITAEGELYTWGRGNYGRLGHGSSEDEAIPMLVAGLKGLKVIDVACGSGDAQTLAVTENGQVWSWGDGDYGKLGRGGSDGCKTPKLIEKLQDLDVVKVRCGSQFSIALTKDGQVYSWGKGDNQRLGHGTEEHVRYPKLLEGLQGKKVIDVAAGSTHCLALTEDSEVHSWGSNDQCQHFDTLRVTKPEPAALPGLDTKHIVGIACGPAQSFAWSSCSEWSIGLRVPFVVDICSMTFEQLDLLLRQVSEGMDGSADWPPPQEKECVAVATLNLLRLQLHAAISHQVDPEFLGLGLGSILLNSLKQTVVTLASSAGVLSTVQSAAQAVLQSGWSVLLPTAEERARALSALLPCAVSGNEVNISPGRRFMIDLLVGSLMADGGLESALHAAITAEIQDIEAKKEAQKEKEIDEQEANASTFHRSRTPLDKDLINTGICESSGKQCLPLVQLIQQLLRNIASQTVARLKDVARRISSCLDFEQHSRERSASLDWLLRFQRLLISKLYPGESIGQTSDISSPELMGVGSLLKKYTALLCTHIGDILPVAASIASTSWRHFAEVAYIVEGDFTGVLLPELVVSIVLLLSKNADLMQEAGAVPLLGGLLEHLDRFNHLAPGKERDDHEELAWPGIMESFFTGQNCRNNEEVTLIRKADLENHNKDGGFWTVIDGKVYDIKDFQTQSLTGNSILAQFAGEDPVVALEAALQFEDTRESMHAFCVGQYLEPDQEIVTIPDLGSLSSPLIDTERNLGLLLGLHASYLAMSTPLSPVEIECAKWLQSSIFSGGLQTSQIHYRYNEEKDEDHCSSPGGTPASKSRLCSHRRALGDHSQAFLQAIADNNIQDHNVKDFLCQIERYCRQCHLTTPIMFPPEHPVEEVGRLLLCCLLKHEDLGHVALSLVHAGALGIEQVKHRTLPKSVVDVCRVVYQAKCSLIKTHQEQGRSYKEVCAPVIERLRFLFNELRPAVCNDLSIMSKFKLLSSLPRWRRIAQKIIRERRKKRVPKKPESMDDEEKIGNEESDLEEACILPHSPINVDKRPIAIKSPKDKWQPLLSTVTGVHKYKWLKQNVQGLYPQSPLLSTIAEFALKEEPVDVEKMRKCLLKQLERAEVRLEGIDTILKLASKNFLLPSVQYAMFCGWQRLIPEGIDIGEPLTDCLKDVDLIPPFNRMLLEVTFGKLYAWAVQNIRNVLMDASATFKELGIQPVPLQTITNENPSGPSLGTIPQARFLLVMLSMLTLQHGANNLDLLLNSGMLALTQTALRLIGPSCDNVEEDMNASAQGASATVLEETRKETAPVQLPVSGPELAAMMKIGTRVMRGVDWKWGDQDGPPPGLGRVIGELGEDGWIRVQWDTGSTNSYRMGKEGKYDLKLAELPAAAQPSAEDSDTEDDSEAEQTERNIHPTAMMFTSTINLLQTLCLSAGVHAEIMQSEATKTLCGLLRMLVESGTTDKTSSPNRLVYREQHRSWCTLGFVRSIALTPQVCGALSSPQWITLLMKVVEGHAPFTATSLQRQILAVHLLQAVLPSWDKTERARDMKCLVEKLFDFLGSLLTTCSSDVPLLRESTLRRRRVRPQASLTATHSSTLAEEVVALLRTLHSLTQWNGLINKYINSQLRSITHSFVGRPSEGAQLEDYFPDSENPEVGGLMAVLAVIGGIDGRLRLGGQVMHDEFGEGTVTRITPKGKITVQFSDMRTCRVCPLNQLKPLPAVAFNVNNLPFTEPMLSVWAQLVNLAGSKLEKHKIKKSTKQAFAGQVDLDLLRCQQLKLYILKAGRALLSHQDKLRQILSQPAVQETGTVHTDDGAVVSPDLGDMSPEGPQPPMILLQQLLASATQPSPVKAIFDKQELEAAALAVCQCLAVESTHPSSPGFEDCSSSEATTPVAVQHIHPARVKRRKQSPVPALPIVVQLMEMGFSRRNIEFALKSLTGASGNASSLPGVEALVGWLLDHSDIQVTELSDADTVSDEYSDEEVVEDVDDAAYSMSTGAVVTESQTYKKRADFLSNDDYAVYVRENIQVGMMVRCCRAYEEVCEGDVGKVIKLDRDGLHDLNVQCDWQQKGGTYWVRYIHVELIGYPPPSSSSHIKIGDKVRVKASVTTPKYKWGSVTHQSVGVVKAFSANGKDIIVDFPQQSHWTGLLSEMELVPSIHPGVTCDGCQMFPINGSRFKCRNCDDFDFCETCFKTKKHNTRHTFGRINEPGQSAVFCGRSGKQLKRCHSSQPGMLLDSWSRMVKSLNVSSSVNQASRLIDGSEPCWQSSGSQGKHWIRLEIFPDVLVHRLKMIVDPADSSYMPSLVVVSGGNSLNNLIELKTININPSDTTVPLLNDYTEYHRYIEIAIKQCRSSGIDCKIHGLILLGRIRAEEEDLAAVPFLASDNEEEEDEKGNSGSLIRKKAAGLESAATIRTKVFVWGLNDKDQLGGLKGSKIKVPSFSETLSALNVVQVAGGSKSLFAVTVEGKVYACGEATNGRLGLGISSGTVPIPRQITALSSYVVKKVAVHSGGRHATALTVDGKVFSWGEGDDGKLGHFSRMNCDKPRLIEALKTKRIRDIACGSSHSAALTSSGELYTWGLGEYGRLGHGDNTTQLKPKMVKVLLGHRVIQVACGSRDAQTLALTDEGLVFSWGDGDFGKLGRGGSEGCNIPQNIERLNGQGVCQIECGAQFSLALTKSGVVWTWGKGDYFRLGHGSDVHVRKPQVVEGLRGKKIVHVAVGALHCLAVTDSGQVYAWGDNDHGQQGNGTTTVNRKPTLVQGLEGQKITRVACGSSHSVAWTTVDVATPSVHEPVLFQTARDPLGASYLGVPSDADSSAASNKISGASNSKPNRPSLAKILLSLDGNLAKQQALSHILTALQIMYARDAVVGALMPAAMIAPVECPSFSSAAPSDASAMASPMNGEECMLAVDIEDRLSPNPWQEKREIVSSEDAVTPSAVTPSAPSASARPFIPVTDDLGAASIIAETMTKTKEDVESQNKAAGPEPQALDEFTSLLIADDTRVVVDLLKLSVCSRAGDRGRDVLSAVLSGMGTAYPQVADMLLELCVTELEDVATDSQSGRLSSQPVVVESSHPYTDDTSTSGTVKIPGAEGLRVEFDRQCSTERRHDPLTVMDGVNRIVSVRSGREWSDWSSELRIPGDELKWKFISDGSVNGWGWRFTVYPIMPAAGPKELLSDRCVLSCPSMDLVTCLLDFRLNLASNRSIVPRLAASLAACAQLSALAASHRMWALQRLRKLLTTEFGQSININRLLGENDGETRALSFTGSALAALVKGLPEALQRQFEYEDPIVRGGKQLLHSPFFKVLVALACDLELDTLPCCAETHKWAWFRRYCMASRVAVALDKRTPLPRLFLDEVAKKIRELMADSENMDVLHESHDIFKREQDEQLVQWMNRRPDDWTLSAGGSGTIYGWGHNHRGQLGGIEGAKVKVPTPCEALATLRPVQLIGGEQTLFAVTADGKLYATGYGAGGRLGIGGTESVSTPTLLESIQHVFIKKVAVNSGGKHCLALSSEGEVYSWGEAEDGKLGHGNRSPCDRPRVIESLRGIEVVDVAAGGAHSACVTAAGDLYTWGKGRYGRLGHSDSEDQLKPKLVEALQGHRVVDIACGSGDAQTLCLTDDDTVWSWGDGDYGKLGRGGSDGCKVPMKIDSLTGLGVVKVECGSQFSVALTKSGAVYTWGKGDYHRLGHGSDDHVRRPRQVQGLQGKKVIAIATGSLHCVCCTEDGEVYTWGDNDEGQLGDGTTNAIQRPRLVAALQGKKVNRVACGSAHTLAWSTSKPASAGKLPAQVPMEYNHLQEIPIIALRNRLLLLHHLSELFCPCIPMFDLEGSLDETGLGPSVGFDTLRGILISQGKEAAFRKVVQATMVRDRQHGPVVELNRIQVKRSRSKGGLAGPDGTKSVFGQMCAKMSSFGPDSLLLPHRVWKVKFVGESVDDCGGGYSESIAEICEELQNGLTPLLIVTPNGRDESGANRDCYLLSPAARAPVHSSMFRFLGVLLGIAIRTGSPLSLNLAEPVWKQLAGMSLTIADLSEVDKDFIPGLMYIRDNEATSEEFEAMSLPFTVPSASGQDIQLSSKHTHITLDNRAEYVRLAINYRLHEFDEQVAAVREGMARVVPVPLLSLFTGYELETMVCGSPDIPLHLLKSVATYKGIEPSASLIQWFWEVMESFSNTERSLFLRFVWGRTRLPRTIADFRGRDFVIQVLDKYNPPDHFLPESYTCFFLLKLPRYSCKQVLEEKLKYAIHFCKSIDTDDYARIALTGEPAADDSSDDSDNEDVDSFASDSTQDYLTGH

B1: BRCA1 (endogenous) (other, UniProt P38398 1-1863, looked up)
chain: MDLSALRVEEVQNVINAMQKILECPICLELIKEPVSTKCDHIFCKFCMLKLLNQKKGPSQCPLCKNDITKRSLQESTRFSQLVEELLKIICAFQLDTGLEYANSYNFAKKENNSPEHLKDEVSIIQSMGYRNRAKRLLQSEPENPSLQETSLSVQLSNLGTVRTLRTKQRIQPQKTSVYIELGSDSSEDTVNKATYCSVGDQELLQITPQGTRDEISLDSAKKAACEFSETDVTNTEHHQPSNNDLNTTEKRAAERHPEKYQGSSVSNLHVEPCGTNTHASSLQHENSSLLLTKDRMNVEKAEFCNKSKQPGLARSQHNRWAGSKETCNDRRTPSTEKKVDLNADPLCERKEWNKQKLPCSENPRDTEDVPWITLNSSIQKVNEWFSRSDELLGSDDSHDGESESNAKVADVLDVLNEVDEYSGSSEKIDLLASDPHEALICKSERVHSKSVESNIEDKIFGKTYRKKASLPNLSHVTENLIIGAFVTEPQIIQERPLTNKLKRKRRPTSGLHPEDFIKKADLAVQKTPEMINQGTNQTEQNGQVMNITNSGHENKTKGDSIQNEKNPNPIESLEKESAFKTKAEPISSSISNMELELNIHNSKAPKKNRLRRKSSTRHIHALELVVSRNLSPPNCTELQIDSCSSSEEIKKKKYNQMPVRHSRNLQLMEGKEPATGAKKSNKPNEQTSKRHDSDTFPELKLTNAPGSFTKCSNTSELKEFVNPSLPREEKEEKLETVKVSNNAEDPKDLMLSGERVLQTERSVESSSISLVPGTDYGTQESISLLEVSTLGKAKTEPNKCVSQCAAFENPKGLIHGCSKDNRNDTEGFKYPLGHEVNHSRETSIEMEESELDAQYLQNTFKVSKRQSFAPFSNPGNAEEECATFSAHSGSLKKQSPKVTFECEQKEENQGKNESNIKPVQTVNITAGFPVVGQKDKPVDNAKCSIKGGSRFCLSSQFRGNETGLITPNKHGLLQNPYRIPPLFPIKSFVKTKCKKNLLEENFEEHSMSPEREMGNENIPSTVSTISRNNIRENVFKEASSSNINEVGSSTNEVGSSINEIGSSDENIQAELGRNRGPKLNAMLRLGVLQPEVYKQSLPGSNCKHPEIKKQEYEEVVQTVNTDFSPYLISDNLEQPMGSSHASQVCSETPDDLLDDGEIKEDTSFAENDIKESSAVFSKSVQKGELSRSPSPFTHTHLAQGYRRGAKKLESSEENLSSEDEELPCFQHLLFGKVNNIPSQSTRHSTVATECLSKNTEENLLSLKNSLNDCSNQVILAKASQEHHLSEETKCSASLFSSQCSELEDLTANTNTQDPFLIGSSKQMRHQSESQGVGLSDKELVSDDEERGTGLEENNQEEQSMDSNLGEAASGCESETSVSEDCSGLSSQSDILTTQQRDTMQHNLIKLQQEMAELEAVLEQHGSQPSNSYPSIISDSSALEDLRNPEQSTSEKAVLTSQKSSEYPISQNPEGLSADKFEVSADSSTSKNKEPGVERSSPSKCPSLDDRWYMHSCSGSLQNRNYPSQEELIKVVDVEEQQLEESGPHDLTETSYLPRQDLEGTPYLESGISLFSDDPESDPSEDRAPESARVGNIPSSTSALKVPQLKVAESAQSPAAAHTTDTAGYNAMEESVSREKPELTASTERVNKRMSMVVSGLTPEEFMLVYKFARKHHITLTNLITEETTHVVMKTDAEFVCERTLKYFLGIAGGKWVVSYFWVTQSIKERKMLNEHDFEVRGDVVNGRNHQGPKRARESQDRKIFRGLEICCYGPFTNMPTDQLEWMVQLCGASVVKELSSFTLGTGVHPIVVVQPDAWTEDNGFHAIGQMCEAPVVTREWVLDSVALYQCQELDTYLIPQIPHSHY
notes: Endogenous protein, precipitated from cell lysate with an anti-BRCA1 antibody; also called endogenous BRCA1
As for B1, the binding result is “binds”.
